Measurements from US20070134249A1 (GENITOPE, published 2007).

Legend:
Test in all cases: ELISA
Design in all cases: key: 0 = <0.5 OD, 1 = 0.5-1.0 OD, 4 = 1-4 OD
[1] = target: T1, 518
T1 construct: H4-59 K4-1; also called PIN518
From the text: (§1) Before specificity screening, all of the clonal immunogen-positive hybridoma supernatants were re-screened on the immunogen, a non-family member Id protein, and KLH, if animals were immunized with Id protein that has been conjugated KLH. As described above, this screen identifies HC-specific clones but not mAbs against the light chain constant region. Clones identified positive to the immunogen and KLH were […]. Those found positive to the immunogen but not to the non-family member Id protein or KLH were tittered on the immunogen. In addition to normalizing for different binding affinities and concentrations, each hybridoma supernatant was titered on the fully human form of the Id protein used as the immunogen(s) for the V regions. The titer or dilution resulting in an ELISA absorbance of 2.5 to 3 OD after 30 min. incubation time was then used. Hybridoma specificity was determined by screening against available Id proteins expressing the same HV and KV or LV as well as different HV, KV and LV. The final ELISA results are expressed as follows: 0 (<0.5 OD), 1 (0.5-1.0 OD), or 4 (1-4 OD). Positive hybridoma supernatants are categorized according to specificity: anti-Id, anti-constant region (HC, KC or LC), or V region (HV, KV, LV family or family member).
(§2) In general, the fully human Id protein or proteins containing the immunogen V regions were coated onto 96-well ELISA plates at 2.5-5 ug/mL in carbonate buffer pH 9.6 and incubated at 4° C. for up to 14 days. On the day of the ELISA, plates were brought to RT and blocked with Tris-Tween-20, pH 7.6 for 15-60 min. at RT. Following a NaCl and Triton X-100 wash, diluted hybridoma cell culture supernatants were incubated overnight at 4° C. Hybridoma supernatant dilutions ranged from 1:2 to 1:25 and were prepared in PBS with 5% BSA. Plates were washed and incubated with HRP-conjugated goat anti-mouse IgG-specific detecting antibody. A chromogenic substrate (TMB) was used to measure the amount of mouse antibody bound to each well. The reaction was stopped at or before 30 minutes with IN H2SO4 and plates were read immediately. Absorbency readings at 450 nm ranging between 0-4 OD and using Molecular Devices plate reader and SOFTMAX PRO software.

[2] = target: T2, 112
T2 construct: H4-39 K4-1; also called PIN112
From the text: as §1, §2

[3] = target: T3, 585
T3 construct: H4-59 K4-1; also called PIN585
From the text: as §1, §2

[4] = target: T4, 952
T4 construct: H3-66 K4-1; also called PIN952
From the text: as §1, §2

[5] = target: T5, 763
T5 construct: H4-59 K4-1; also called PIN763
From the text: as §1, §2

[6] = target: T6, 1175
T6 construct: H3-53 K4-1; also called PIN1175
From the text: as §1, §2

[7] = target: T7, 839
T7 construct: H3-23 K4-1; also called PIN839
From the text: as §1, §2

[8] = target: T8, 610
T8 construct: H3-23 K4-1; also called PIN610
From the text: as §1, §2

[9] = target: T9, 204
T9 construct: H3-15 K4-1; also called PIN204
From the text: as §1, §2

[10] = target: T10, 591
T10 construct: H3-23 K4-1; also called PIN591
From the text: as §1, §2

[11] = target: T11, 192
T11 construct: H5-51 K4-1; also called PIN192
From the text: as §1, §2

[12] = target: T12, 1154
T12 construct: H4-61 K4-1; also called PIN1154
From the text: as §1, §2

[13] = target: T13, 659
T13 construct: H3-21 K4-1; also called PIN659
From the text: as §1, §2

[14] = target: T14, 712
T14 construct: H3-23 K4-1; also called PIN712
From the text: as §1, §2

[15] = target: T15, 792
T15 construct: H1-3 K4-1; also called PIN792
From the text: as §1, §2

[16] = target: T16, 529
T16 construct: H3-48 K4-1; also called PIN529
From the text: as §1, §2

[17] = target: T17, 953
T17 construct: H5-51 K4-1; also called PIN953
From the text: as §1, §2

[18] = target: T18, 566
T18 construct: H3-73 K4-1; also called PIN566
From the text: as §1, §2

[19] = target: T19, 844
T19 construct: H3-7 K4-1; also called PIN844
From the text: as §1, §2

[20] = target: T20, 902
T20 construct: H3-7 K3-20; also called PIN902
From the text: as §1, §2

grade [1]: 4
grade [2]: 4
grade [3]: 4
grade [4]: 4
grade [5]: 4
grade [6]: 4
grade [7]: 4
grade [8]: 4
grade [9]: 4
grade [10]: 4
grade [11]: 4
grade [12]: 4
grade [13]: 4
grade [14]: 4
grade [15]: 4
grade [16]: 4
grade [17]: 4
grade [18]: 4
grade [19]: 4
grade [20]: 4
B1: mAb clone 12C3 (antibody, V domains shown)
VH: EVKLVESGGGLVQPGGSLSLSCAASGFTYTDYYMNWVRQPPGKALEWLALIRNKANGYTTEYSASLKGRFTISRDNSQSILYLQMNALRAEDSATYYCVRENINYYFDYWGQGTTLTVSS
VL: DIVLTQSPASLAVSLGQRATISCRASESVEYFGASLMQWYQQKSGQPPKLLIRAATNVESGVPARFSGSGSGTDFSLNIHPVEEDDIAMYFCQQSRKVPWTFGGGTKLEIKR
notes: Mouse hybridoma mAb, fusions 20/21 (PIN628 V regions)
